± gives the uncertainty stated by the source.
B1: Pituitary-specific positive transcription factor 1, residues 130 to 198; numbered along this chain, P28069 (parent)
chain: RELEKFANEFKVRRIKLGYTQTNVGEALAAVHGSEFSQTTICRFENLQLSFKNACKLKAILSKWLEEAE

Variants of: B1
Experiment: abundance fitness (aPCA) (normalised: wild type 0, dead -1); higher = more abundant; growth selection in yeast, the domain comes from the species named
Conditions: Homo sapiens

Abundance fitness: each site, then its substitutions
A27: F -0.437 ± 0.17; T -0.18 ± 0.089; C -0.289 ± 0.28; N -0.74 ± 0.41; L -0.315 ± 0.077; P -0.868 ± 0.23; S -0.106 ± 0.051; D -0.221 ± 0.17; I -0.166 ± 0.15
S37: E -0.568 ± 0.13; F -0.901 ± 0.15; A -0.607 ± 0.076; Q -0.736 ± 0.14; R -0.743 ± 0.066; M -0.823 ± 0.11; I -0.697 ± 0.21; P -0.544 ± 0.099; H -0.689 ± 0.15; C -0.281 ± 0.071; T -0.063 ± 0.055; Y -0.508 ± 0.11; N 0.117 ± 0.069; W -0.925 ± 0.16; D 0.199 ± 0.059; L -0.682 ± 0.076; V -0.833 ± 0.095
T40: V -0.314 ± 0.083; Q -0.211 ± 0.075; N -0.71 ± 0.29; F -0.911 ± 0.25; S -0.348 ± 0.091; C -0.512 ± 0.22; G -0.528 ± 0.1; E -0.193 ± 0.21; L -0.003 ± 0.073; W -0.624 ± 0.11; H -0.403 ± 0.13; D 0.308 ± 0.2; A -0.235 ± 0.081; I -0.642 ± 0.43; M -0.431 ± 0.38
S34: Y -0.373 ± 0.086; N 0.107 ± 0.15; E 0.019 ± 0.055; A -0.079 ± 0.11; W -0.562 ± 0.39; T -0.139 ± 0.097; I -0.171 ± 0.1; F -0.387 ± 0.13; Q 0.057 ± 0.057; C -0.431 ± 0.24; R -0.038 ± 0.093; D -0.015 ± 0.14; H 0.039 ± 0.23; V -0.084 ± 0.13; K 0.09 ± 0.066; P 0.133 ± 0.07; L -0.253 ± 0.057; M -0.188 ± 0.097
A30: T -0.23 ± 0.085; K -0.008 ± 0.1; V -0.444 ± 0.087; D -0.457 ± 0.11; Y -0.633 ± 0.13; E -0.128 ± 0.073; S -0.138 ± 0.058; R 0.042 ± 0.049; I -0.309 ± 0.15; L -0.217 ± 0.067; M -0.261 ± 0.075; G -0.298 ± 0.054; N -0.219 ± 0.071; F -0.726 ± 0.16; C -0.127 ± 0.1; P -0.468 ± 0.091; H -0.357 ± 0.08
G25: T -0.325 ± 0.12; F -0.285 ± 0.18; D -0.647 ± 0.12; A 0.396 ± 0.057; Y 0.101 ± 0.12; Q -0.171 ± 0.074; P -0.776 ± 0.15; I -0.184 ± 0.15; K -0.797 ± 0.22; C 0.005 ± 0.059; S 0.198 ± 0.045; W -0.001 ± 0.066; V 0.085 ± 0.045; M -0.468 ± 0.11; N -0.911 ± 0.38; L -0.692 ± 0.088; R -0.813 ± 0.087
Q38: T 0.277 ± 0.29
I41: Q -0.785 ± 0.33; N -0.88 ± 0.16; L -0.541 ± 0.083; P -0.897 ± 0.35; V -0.523 ± 0.12; K -0.842 ± 0.33; W -0.502 ± 0.15; S -0.866 ± 0.15; C -0.444 ± 0.12; M -0.446 ± 0.15; D -0.758 ± 0.37; G -0.976 ± 0.27; T -0.892 ± 0.39; H -0.56 ± 0.26
L47: H 0.164 ± 0.11; S -0.168 ± 0.072; R -0.065 ± 0.066; V -0.888 ± 0.19; E -0.635 ± 0.16; I -0.866 ± 0.34; D -0.689 ± 0.15; C 0.155 ± 0.15; F -0.562 ± 0.12; P -0.804 ± 0.25; K -0.064 ± 0.057; G 0.292 ± 0.063; M 0.263 ± 0.082; N 0.187 ± 0.065; T -0.667 ± 0.23; A -0.204 ± 0.082
G33: M -0.792 ± 0.14; C -0.791 ± 0.11; H -0.536 ± 0.31; F -0.934 ± 0.47; T -0.892 ± 0.14; P -0.393 ± 0.075; A -0.555 ± 0.074; L -1.08 ± 0.12; S -0.75 ± 0.07; Y -0.96 ± 0.21; K -0.85 ± 0.28; Q -0.212 ± 0.1; R -0.835 ± 0.098; E -0.856 ± 0.16; D -0.721 ± 0.16; I -1 ± 0.26
C42: G -0.029 ± 0.064; M 0.311 ± 0.2; R 0.142 ± 0.069; P -0.761 ± 0.092; H -0.001 ± 0.11; F -0.348 ± 0.081; K 0.148 ± 0.14; T -0.02 ± 0.068; N 0.092 ± 0.093; W -0.101 ± 0.059; Y -0.243 ± 0.12; A 0.21 ± 0.074; V -0.336 ± 0.054; D 0.325 ± 0.085
L28: N -0.863 ± 0.26; R -0.554 ± 0.068; T -0.226 ± 0.098; E -0.718 ± 0.21; S -0.732 ± 0.16; C -0.889 ± 0.23; G -0.715 ± 0.14; P -0.853 ± 0.4; I -0.276 ± 0.34; A -0.799 ± 0.23; M -0.824 ± 0.27; D -0.162 ± 0.11; Y -0.711 ± 0.18

From the Human Domainome abundance scans (Beltran et al. 2025)
